Legend:
[1] = target: Sau-TBD (large fragment of Staphylococcus aureus Pol I with the thioredoxin-binding domain of bacteriophage T7 DNA polymerase inserted) (Staphylococcus aureus | bacteriophage T7)
[2] = target: Sau-TBD (large fragment of Staphylococcus aureus Pol I with the thioredoxin-binding domain of bacteriophage T7 DNA polymerase inserted) (Staphylococcus aureus | bacteriophage T7); remark: listed apart in the source

DNA polymerase activity of Sau-TBD on primed M13mp18 DNA with 1.5 uM thioredoxin (1316 units/mg protein without thioredoxin) (units/mg protein) [1]: 2860
average primer extension length of Sau-TBD with thioredoxin, as told in the text (differs from Table 3) [2]: 74.2 nt
microscopic processivity (PI) of Sau-TBD with thioredoxin, as told in the text (differs from Table 3) [2]: 0.986
Substance: thioredoxin from E. coli (TrxA) (from UniProt P0AA25 2-109) (natural protein)

Reference: publication PMC6486907
